Measured values as given in patent publication US20230416380A1 (AJOU UNIVERSITY INDUSTRY ACADEMIC COOPERATION FOUNDATION, published 2023).

What was measured:
[1] = target: T1, human IL-5Rα on cells (TF-1/IL-5Rα cells stably overexpressing IL-5Rα; human eosinophils) (human) (UniProt Q01344); assay: cell-based or functional assay
T1 sequence (looked up): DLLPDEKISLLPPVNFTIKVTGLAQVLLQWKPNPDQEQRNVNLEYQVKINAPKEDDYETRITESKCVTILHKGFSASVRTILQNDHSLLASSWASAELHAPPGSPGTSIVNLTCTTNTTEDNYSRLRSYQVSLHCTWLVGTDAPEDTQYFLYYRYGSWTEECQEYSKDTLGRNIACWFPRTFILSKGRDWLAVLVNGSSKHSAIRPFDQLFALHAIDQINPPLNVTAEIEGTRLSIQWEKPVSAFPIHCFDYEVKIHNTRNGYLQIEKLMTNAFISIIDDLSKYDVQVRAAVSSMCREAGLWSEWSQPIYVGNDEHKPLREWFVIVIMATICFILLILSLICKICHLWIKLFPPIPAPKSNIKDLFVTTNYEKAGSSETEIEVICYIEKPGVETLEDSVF

[2] = target: T2, sIL-5Rα (extracellular domain of human IL-5 receptor alpha subunit, Asp1-Asn313 of SEQ ID NO: 19, C-terminal Avi tag and 6×His tag, expressed in HEK293F) (human) (UniProt Q01344); assay: BLI (Octet QKe), antibody on AHC sensor, sIL-5Rα in solution, 1:1 model
T2 sequence: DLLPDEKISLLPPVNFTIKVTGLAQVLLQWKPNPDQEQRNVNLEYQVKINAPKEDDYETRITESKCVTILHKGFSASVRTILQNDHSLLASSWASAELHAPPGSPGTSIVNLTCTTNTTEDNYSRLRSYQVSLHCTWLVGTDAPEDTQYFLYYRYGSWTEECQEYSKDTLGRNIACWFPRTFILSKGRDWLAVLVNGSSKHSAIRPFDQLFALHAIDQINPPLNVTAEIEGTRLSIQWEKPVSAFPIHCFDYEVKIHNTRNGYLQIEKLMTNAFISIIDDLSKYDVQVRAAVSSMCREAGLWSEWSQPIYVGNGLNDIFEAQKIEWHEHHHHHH

[3] = target: T2, sIL-5Rα (extracellular domain of human IL-5 receptor alpha subunit, Asp1-Asn313 of SEQ ID NO: 19, C-terminal Avi tag and 6×His tag, expressed in HEK293F) (human); assay: binding competition ELISA: IL-5-mFc coated (competitor), antibody dilutions plus 100 nM IL-5Rα, anti-his-HRP
[4] = target: T3, sIL-5Rα (extracellular domain of human IL-5 receptor alpha subunit, Asp1-Asn313 of SEQ ID NO: 19, C-terminal … (human, UniProt Q01344 21-333)); assay: BLI (Octet QKe), antibody on sensor, sIL-5Rα in solution, 1:1 model
T3 construct: also called sIL-5Rα antigen protein
T3 sequence: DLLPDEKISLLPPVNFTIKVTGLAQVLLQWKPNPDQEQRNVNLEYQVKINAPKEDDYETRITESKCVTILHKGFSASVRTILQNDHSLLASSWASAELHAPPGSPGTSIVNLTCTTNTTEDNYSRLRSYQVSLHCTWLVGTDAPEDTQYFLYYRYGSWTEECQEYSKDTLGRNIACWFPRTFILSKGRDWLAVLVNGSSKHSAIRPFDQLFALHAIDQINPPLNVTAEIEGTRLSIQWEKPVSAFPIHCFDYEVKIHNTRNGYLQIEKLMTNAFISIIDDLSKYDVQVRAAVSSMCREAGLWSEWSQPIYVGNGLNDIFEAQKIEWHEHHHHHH
Description: (§1) Specifically, 1× kinetic buffer was prepared by diluting 10× kinetic buffer (ForteBio, 18-1105) in PBS. […] Affinity was calculated with Octet Data Analysis software 11.0 in a 1:1 binding model.
(§2) Therefore, it was confirmed that the order of affinity was benralizumab>m2B7>hu2B7.

[5] = target: T4, human IL-5Rα on cells (TF-1/IL-5Rα cells stably overexpressing IL-5Rα; human eosinophils) (human, UniProt Q01344 21-420); assay: cell-based or functional assay
T4 sequence (looked up): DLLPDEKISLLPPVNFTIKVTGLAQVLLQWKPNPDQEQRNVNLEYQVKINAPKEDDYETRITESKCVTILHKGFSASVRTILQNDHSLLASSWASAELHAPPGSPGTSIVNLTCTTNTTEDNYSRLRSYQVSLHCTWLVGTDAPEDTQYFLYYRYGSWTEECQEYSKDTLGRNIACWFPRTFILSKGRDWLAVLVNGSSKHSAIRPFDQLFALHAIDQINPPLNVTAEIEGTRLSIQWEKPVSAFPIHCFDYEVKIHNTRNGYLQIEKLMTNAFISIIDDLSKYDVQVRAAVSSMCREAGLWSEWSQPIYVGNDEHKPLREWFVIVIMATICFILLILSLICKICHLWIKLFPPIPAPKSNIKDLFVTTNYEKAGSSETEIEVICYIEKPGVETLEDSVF

[6] = target: T3, sIL-5Rα (extracellular domain of human …); assay: BLI (Octet QKe), comparison of KD values
Description: as §1

[7] = target: T3, sIL-5Rα (extracellular domain of human …); assay: binding competition ELISA: IL-5-mFc coated (competitor), antibody dilutions plus 100 nM IL-5Rα, anti-his-HRP; 5R65 antibody; IL-5-mFc coated, 100 nM IL-5Rα, anti-his-HRP
Description: (§3) Prior to biological efficacy evaluation, binding competition ELISA was performed to determine whether or not anti-IL-5Rα humanized antibodies bind competitively with IL-5 to the IL-5 binding site of IL-5Rα. Specifically, IL-5 (Uniprot code: P05113, Ile20-Ser134) was fused to the G4S linker and the heavy-chain constant region (hinge-CH2-CH3) of mouse IgG2a, was subjected to transient transfection and purified (FIG. 5C). The purified IL-5-mFc proteins were immobilized at a density of 100 ng/well on a 96-well plate at room temperature for 1 hour, and blocked using 0.1% PBST containing 2% skim milk at room temperature for 1 hour. After discarding the solution and then washing the same three times with 0.1% PBST, mixtures of anti-IL-5a antibody [2-fold dilution at 2,000 nM] at various concentrations were prepared and each mixture was added in an amount of 25 μl/well to the blocked plate, 100 nM IL-5Rα was further added at 25 μl/well for 1 hour, followed by reaction at room temperature for 1 hour. […] After discarding the solution and washing three times with PBST, a TMB solution was added in an amount of 50 μl/well, color development was induced at room temperature for 2 minutes and 30 seconds, the reaction was stopped using H₂SO₄ (2N), and the absorbance at 450 nm was measured.

[8] = target: T3, sIL-5Rα (extracellular domain of human …); assay: competition ELISA: IL-5-mFc coated at 100 ng/well, antibody dilution series mixed with His-tagged sIL-5Rα, bound sIL-5Rα detected with anti-His-HRP; blocked ligand IL-5-mFc
[9] = target: T3, sIL-5Rα (extracellular domain of human …); assay: BLI (Octet QKe), antibody on AHC sensor, sIL-5Rα in solution, 1:1 model
Description: as §1, §2

[10] = target: T3, sIL-5Rα (extracellular domain of human …); assay: as above; remark: listed apart in the source
Description: as §1

[11] = target: T3, sIL-5Rα (extracellular domain of human …); assay: binding competition ELISA: IL-5-mFc coated (competitor), antibody dilutions plus 100 nM IL-5Rα, anti-his-HRP; 5R86 antibody; IL-5-mFc coated, 100 nM IL-5Rα, anti-his-HRP
Description: as §3

B1: benralizumab analogue (benralizumab variable regions with an IgG1 constant region) (antibody, INN chains, looked up, V domains shown)
VH: EVQLVQSGAEVKKPGASVKVSCKASGYTFTSYVIHWVRQRPGQGLAWMGYINPYNDGTKYNERFKGKVTITSDRSTSTVYMELSSLRSEDTAVYLCGREGIRYYGLLGDYWGQGTLVTVSS
VL: DIQMTQSPSSLSASVGDRVTITCGTSEDIINYLNWYQQKPGKAPKLLIYHTSRLQSGVPSRFSGSGSGTDFTLTISSLQPEDFATYYCQQGYTLPYTFGQGTKVEIK
modifications: fucosylated IgG1
absolute IC50 (Abs IC50), inhibition of IL-5-dependent proliferation of TF-1/IL-5Rα cells [1]: 1.99 nM
Kd [2]: 26.8 nM
koff [2]: 0.0011 s⁻¹
kon [2]: 41100 M⁻¹ s⁻¹
IC50 [3]: 9.8 nM

B2: m2B7 (anti-IL-5Rα mouse antibody) (antibody, V domains shown)
VH: QVQLQQPGAELVRPGASVKLSCKASGYTFTSYWINWVKQRPGQGLEWIGHIYPSESYTNYNQKFKDKATLTVDKSSSTAYMQLSSPTSEDSAVYYCTRDYYGRSYYYAMDYWGQGTSVTVSS
VL: DIVMTQSHKFMSTSVGDRVSITCKASQNVGTAVAWYQQKPGQSPKLLIYWASTRHTGVPDRFTGSGSGTDFTFTISNVQSEDLADYFCQQFGRYPYTFGGGTKLEIK
notes: also called mouse antibody m2B7; mB7
Kd [4]: 40.2 nM
koff [4]: 0.000834 s⁻¹
kon [4]: 20700 M⁻¹ s⁻¹

B3: 5R65.7 (anti-IL-5Rα humanized antibody, affinity matured from 5R65) (antibody, V domains shown)
VH: QVQLVQSGAEVKKPGSSVKVSCKASGYTFTSYWINWVRQAPGQGLEWIGHIYPNKNENYYNHKFKDKATLTVDKSTNTAYMELSSLRSEDTAVYYCTREFYGRQYYQAMDYWGQGTTLTVSS
VL: DIQMTQSPSTLSASVGDRVTITCKASQNVGTAVAWYQQKPGKAPKLLIYWASTRHTGVPDRFSGSGSGTDFTLTISSLQPDDFATYYCQQFGRYPYTFGSGTKVEVK
abs IC50, inhibition of IL-5-dependent proliferation of TF-1/IL-5Rα cells [5]: 0.57 nM

B4: 5R65 (anti-IL-5Rα humanized antibody) (antibody, V domains shown)
VH: QVQLVQSGAEVKKPGSSVKVSCKASGYTFTSYWINWVRQAPGQGLEWIGHIYPNKNENYYNHKFKDKATLTVDKSTNTAYMELSSLRSEDTAVYYCTRDYYGRSYYYAMDYWGQGTTLTVSS
VL: DIQMTQSPSTLSASVGDRVTITCKASQNVGTAVAWYQQKPGKAPKLLIYWASTRHTGVPDRFSGSGSGTDFTLTISSLQPDDFATYYCQQFGRYPYTFGSGTKVEVK
notes: Only VH-CDR2 of hu2B7 was diversified, the light chain is that of hu2B7; also called 5R65 antibody
affinity relative to the benralizumab analogue [6]: ~2 fold
IC50 [7]: 9.5 nM

B5: hu2B7 (humanized m2B7) (antibody, V domains shown)
VH: QVQLVQSGAEVKKPGSSVKVSCKASGYTFTSYWINWVRQAPGQGLEWIGHIYPSESYTNYNQKFKDKATLTVDKSTNTAYMELSSLRSEDTAVYYCTRDYYGRSYYYAMDYWGQGTTLTVSS
VL: DIQMTQSPSTLSASVGDRVTITCKASQNVGTAVAWYQQKPGKAPKLLIYWASTRHTGVPDRFSGSGSGTDFTLTISSLQPDDFATYYCQQFGRYPYTFGSGTKVEVK
notes: Expressed from plasmids encoding HC and LC and purified on protein A; also called humanized antibody hu2B7
IC50 [8]: 57.4 nM
Kd [9]: 47.8 nM
koff [9]: 0.00106 s⁻¹
kon [9]: 22200 M⁻¹ s⁻¹

B6: 5R68 (anti-IL-5Rα humanized antibody) (antibody, IgG1, V domains shown)
VH: QVQLVQSGAEVKKPGSSVKVSCKASGYTFTSYWINWVRQAPGQGLEWIGHIYPTATIAVYNDKFKDKATLTVDKSTNTAYMELSSLRSEDTAVYYCTRDYYGRSYYYAMDYWGQGTTLTVSS
VL: DIQMTQSPSTLSASVGDRVTITCKASQNVGTAVAWYQQKPGKAPKLLIYWASTRHTGVPDRFSGSGSGTDFTLTISSLQPDDFATYYCQQFGRYPYTFGSGTKVEVK
IC50 [8]: 28.8 nM
Kd [10]: 24.1 nM
koff [10]: 0.000566 s⁻¹
kon [10]: 23500 M⁻¹ s⁻¹

B7: 5R80 (anti-IL-5Rα humanized antibody) (antibody, IgG1, V domains shown)
VH: QVQLVQSGAEVKKPGSSVKVSCKASGYTFTSYWINWVRQAPGQGLEWIGHIYPQKTLTIYNHKFKDKATLTVDKSTNTAYMELSSLRSEDTAVYYCTRDYYGRSYYYAMDYWGQGTTLTVSS
VL: DIQMTQSPSTLSASVGDRVTITCKASQNVGTAVAWYQQKPGKAPKLLIYWASTRHTGVPDRFSGSGSGTDFTLTISSLQPDDFATYYCQQFGRYPYTFGSGTKVEVK
IC50 [8]: 24.2 nM
Kd [10]: 16.2 nM
koff [10]: 0.000365 s⁻¹
kon [10]: 22500 M⁻¹ s⁻¹

B8: 5R86 (anti-IL-5Rα humanized antibody) (antibody, IgG1, V domains shown)
VH: QVQLVQSGAEVKKPGSSVKVSCKASGYTFTSYWINWVRQAPGQGLEWIGHIYPTSSVKFYNNKFKDKATLTVDKSTNTAYMELSSLRSEDTAVYYCTRDYYGRSYYYAMDYWGQGTTLTVSS
VL: DIQMTQSPSTLSASVGDRVTITCKASQNVGTAVAWYQQKPGKAPKLLIYWASTRHTGVPDRFSGSGSGTDFTLTISSLQPDDFATYYCQQFGRYPYTFGSGTKVEVK
Kd [10]: 11.8 nM
koff [10]: 0.000325 s⁻¹
kon [10]: 27600 M⁻¹ s⁻¹
IC50 [11]: 14.1 nM
